Source: article PMC3634489

Tests used:
[1] = biological target: 2A1 IgA of the combination HCα1-LCλ-JC (heavy chain α1 without KDEL, λ light chain, co-expressed J chain) (human) (UniProt P01591); test: ELISA; […]) capture antibody, […]
[2] = biological target: 2A1 IgA of the combination HCα1-LCλ-JC (heavy chain α1 without KDEL, λ light chain, co-expressed J chain) (human) (UniProt P01591); test: ELISA
[3] = biological target: 2A1 IgA of the combination HCα1-LCλ-JC (heavy chain α1 without KDEL, λ light chain, co-expressed J chain) (human) (UniProt P01591); test: SEC

Sequence of UniProt P01591 (P01591 whole entry, looked up): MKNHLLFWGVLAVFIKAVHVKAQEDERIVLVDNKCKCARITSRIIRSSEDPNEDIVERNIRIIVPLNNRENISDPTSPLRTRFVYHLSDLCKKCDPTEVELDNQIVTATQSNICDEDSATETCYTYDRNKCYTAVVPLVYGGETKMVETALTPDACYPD

Substance: secretory component with a C-terminal KDEL signal (SCkdel) (from UniProt P01833 19-638) (domain or fragment)
- percent of total HC in the sIgA complex [1]: > 33%
- percent of total HC in the sIgA complex [2]: 21%
- percent of total IgA content as sIgA [3]: 20%
